{
  "source": "patent US20240228599A1",
  "binders": {"B1": {"name": "anti-factor Bb monoclonal antibody M12 (antibody, V domains shown)", "VH": "EVQLQQSGPELVKPGASVKMSCKASGYSFTDYLMNWVKQSHGKSLEWIGRINPYNGDAFYNQRFKGKATLTVDKSSSTAHMELRSLTSEDSALYYCARLENDYGFTYWGQGTLVTVSA", "VL": "DIVMTQAAFSNPVTLGTSASISCSSSKSLLHSNGITYLYWYLQRPGQSPQLLIYRMSNLASGVPDRFSGSGSGTDFTLRISRVEAEDVGVYYCAQMLERPWTFGGGTKLEIK"}},
  "target": "cynomolgus monkey Factor B (cynomolgus monkey)",
  "assay": "ELISA; cynomolgus Factor B coated at 5 µg/mL, mAb in 3-fold dilutions from 10 µg/mL; EC50 by Prism according to the text, headed 'Binding Affinity (M)' on the sheet",
  "data": [
    {"binder": "B1", "values": [
      {"measurement": "EC50", "value": 5.56, "unit": "nM"}
    ]}
  ]
}
